Results as given in patent US20110020273A1 (published 2011).

Molecular target: T1, CD20 (human, UniProt P11836 1-297)
T1 sequence (looked up): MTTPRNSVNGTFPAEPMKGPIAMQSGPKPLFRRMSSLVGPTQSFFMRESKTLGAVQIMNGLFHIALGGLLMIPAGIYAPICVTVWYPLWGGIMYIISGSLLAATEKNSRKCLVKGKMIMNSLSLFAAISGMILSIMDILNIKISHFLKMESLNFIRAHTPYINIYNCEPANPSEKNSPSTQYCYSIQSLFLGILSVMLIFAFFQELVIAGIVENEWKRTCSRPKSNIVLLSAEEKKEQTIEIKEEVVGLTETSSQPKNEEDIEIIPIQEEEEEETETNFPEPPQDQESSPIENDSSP
Experiment: cell-based or functional assay

B1: veltuzumab (antibody, V domains shown)
VH: QVQLQQSGAEVKKPGSSVKVSCKASGYTFTSYNMHWVKQAPGQGLEWIGAIYPGMGDTSYNQKFKGKATLTADESTNTAYMELSSLRSEDTAFYYCARSTYYGGDWYFDVWGQGTTVTVSS
VL: DIQLTQSPSSLSASVGDRVTMTCRASSSVSYIHWFQQKPGKAPKPWIYATSNLASGVPVRFSGSGSGTDYTFTISSLQPEDIATYYCQQWTSNPPTFGGGTKLEIK
B1 was tested, and the “EC50, in vitro proliferation of Jeko-1 cells” value was 1.5 nM.
